In patent publication US20150344570A1 (published 2015):

Experiments:
FcγRIIIa V = FcγRIIIa V (human, UniProt P08637 17-208); test: SPR (Biacore), KD
FcγRIIIa F = FcγRIIIa F (human, UniProt P08637 17-208); test: SPR (Biacore), KD
Sequence of FcγRIIIa F (P08637 17-208): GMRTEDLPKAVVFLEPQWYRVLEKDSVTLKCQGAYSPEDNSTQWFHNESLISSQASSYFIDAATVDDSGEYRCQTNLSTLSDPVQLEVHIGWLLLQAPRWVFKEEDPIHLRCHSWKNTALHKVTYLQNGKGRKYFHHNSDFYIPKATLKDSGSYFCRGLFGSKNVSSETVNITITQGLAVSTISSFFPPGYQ

Sequence of FcγRIIIa V (P08637 17-208): as above

Binder | fold binding against the variant before introduction of I332E and Y235N (FcγRIIIa V) [times] | fold binding against the variant before introduction of I332E and Y235N (FcγRIIIa F) [times] | fold binding activity against H240-Kn033/H240-Hl033/L73-k0 (FcγRIIIa V) [fold] | fold binding activity against H240-Kn033/H240-Hl033/L73-k0 (FcγRIIIa F) [fold]
H240-Kn192/H240-Hl204/L73-k0 (antibody, human IgG1, kappa, Y235N and E294K in H240-Kn120; G236T and I332E in H240-Hl068; also called H240-Kn192/H240-HI204/L73-k0) heavy 1: QDQLVQSGAEVKKPGASVKVSCKASGFNIKDTYIQWVRQAPGQGLEWMGRIDPLRKQTKYREKFEGRVTITADTSTNTAYMELSSLRSEDTAVYYCVRSGREFDYWGQGTLVTVSSASTKGPSVFPLAPSSKSTSGGTAALGCLVKDYFPEPVTVSWNSGALTSGVHTFPAVLQSSGLYSLSSVVTVPSSSLGTQTYICNVNHKPSNTKVDKKVEPKSCDKTHTCPPCPAPEYNWGPMVFLFPPKPKDTLMISRTPEVTCVVVDVSDEDPEVKFNWYVDGVEVHNAKTKPREKQYNATYRVVSVLTVLHQDWLNGKEYKCKVSNKDLPAPIEKTISKAKGQPREPQVCTLPPSRDELTKNQVSLWCLVKGFYPSDIAVEWESNGQPENNYKTTPPVLDSDGSFFLYSKLTVDKSRWQQGNVFSCSVMHEALHNHYTQKSLSLSP heavy 2: QDQLVQSGAEVKKPGASVKVSCKASGFNIKDTYIQWVRQAPGQGLEWMGRIDPLRKQTKYREKFEGRVTITADTSTNTAYMELSSLRSEDTAVYYCVRSGREFDYWGQGTLVTVSSASTKGPSVFPLAPSSKSTSGGTAALGCLVKDYFPEPVTVSWNSGALTSGVHTFPAVLQSSGLYSLSSVVTVPSSSLGTQTYICNVNHKPSNTKVDKKVEPKSCDKTHTCPPCPAPELLTGPSVFLFPPKPKDTLMISRTPEVTCVVVDVSHEEPEVKFNWYVDGVEVHNAKTKPREEQYNSTYRVVSVLTVLHQDWLNGKEYKCKVSNDALPKPEEETISKAKGQPREPQVYTLPPSRCELTKNQVSLSCAVKGFYPSDIAVEWESNGQPENNYKTTPPVLDSDGSFFLVSKLTVDKSRWQQGNVFSCSVMHEALHNHYTQKSLSLSP light: DIQMTQSPSSLSASVGDRVTITCRASQDIHKYIAWYQQKPGQAPRLLIQYTSTLQPGVPSRFSGSGSGTDYTFTISSLQPEDIATYYCLQYEQLRTFGGGTKVEIKRTVAAPSVFIFPPSDEQLKSGTASVVCLLNNFYPREAKVQWKVDNALQSGNSQESVTEQDSKDSTYSLSSTLTLSKADYEKHKVYACEVTHQGLSSPVTKSFNRGEC | 8 | 2 |  | 
H240-Kn201/H240-Hl076/L73-k0 (antibody, human IgG1, kappa) heavy 1: QDQLVQSGAEVKKPGASVKVSCKASGFNIKDTYIQWVRQAPGQGLEWMGRIDPLRKQTKYREKFEGRVTITADTSTNTAYMELSSLRSEDTAVYYCVRSGREFDYWGQGTLVTVSSASTKGPSVFPLAPSSKSTSGGTAALGCLVKDYFPEPVTVSWNSGALTSGVHTFPAVLQSSGLYSLSSVVTVPSSSLGTQTYICNVNHKPSNTKVDKKVEPKSCDKTHTCPPCPAPEFQWGPMVFLFPPKPKDTLMISRTPEVTCVVVDVSDEEPEVKFNWYVDGVEVHNAKTKPREEQYNATYRVVSVLTVLHQDWLNGKEYKCKVSNKALPAPIEKTISKAKGQPREPQVCTLPPSRDELTKNQVSLWCLVKGFYPSDIAVEWESNGQPENNYKTTPPVLDSDGSFFLYSKLTVDKSRWQQGNVFSCSVMHEALHNHYTQKSLSLSP heavy 2: QDQLVQSGAEVKKPGASVKVSCKASGFNIKDTYIQWVRQAPGQGLEWMGRIDPLRKQTKYREKFEGRVTITADTSTNTAYMELSSLRSEDTAVYYCVRSGREFDYWGQGTLVTVSSASTKGPSVFPLAPSSKSTSGGTAALGCLVKDYFPEPVTVSWNSGALTSGVHTFPAVLQSSGLYSLSSVVTVPSSSLGTQTYICNVNHKPSNTKVDKKVEPKSCDKTHTCPPCPAPELLGGPSVFLFPPKPKDTLMISRTPEVTCVVVDVSHEEPEVKFNWYVDGVEVHNAKTKPREEQYNSTYRVVSVLTVLHQDWLNGKEYKCKVSNDALPMPIEETISKAKGQPREPQVYTLPPSRCELTKNQVSLSCAVKGFYPSDIAVEWESNGQPENNYKTTPPVLDSDGSFFLVSKLTVDKSRWQQGNVFSCSVMHEALHNHYTQKSLSLSP light: DIQMTQSPSSLSASVGDRVTITCRASQDIHKYIAWYQQKPGQAPRLLIQYTSTLQPGVPSRFSGSGSGTDYTFTISSLQPEDIATYYCLQYEQLRTFGGGTKVEIKRTVAAPSVFIFPPSDEQLKSGTASVVCLLNNFYPREAKVQWKVDNALQSGNSQESVTEQDSKDSTYSLSSTLTLSKADYEKHKVYACEVTHQGLSSPVTKSFNRGEC |  |  | ≥ 100 | ≥ 100
H240-Kn193/H240-Hl204/L73-k0 (antibody, human IgG1, kappa, Y235N and E294R in H240-Kn120; G236T and I332E in H240-Hl068; also called H240-Kn193/H240-HI204/L73-k0) heavy 1: QDQLVQSGAEVKKPGASVKVSCKASGFNIKDTYIQWVRQAPGQGLEWMGRIDPLRKQTKYREKFEGRVTITADTSTNTAYMELSSLRSEDTAVYYCVRSGREFDYWGQGTLVTVSSASTKGPSVFPLAPSSKSTSGGTAALGCLVKDYFPEPVTVSWNSGALTSGVHTFPAVLQSSGLYSLSSVVTVPSSSLGTQTYICNVNHKPSNTKVDKKVEPKSCDKTHTCPPCPAPEYNWGPMVFLFPPKPKDTLMISRTPEVTCVVVDVSDEDPEVKFNWYVDGVEVHNAKTKPRERQYNATYRVVSVLTVLHQDWLNGKEYKCKVSNKDLPAPIEKTISKAKGQPREPQVCTLPPSRDELTKNQVSLWCLVKGFYPSDIAVEWESNGQPENNYKTTPPVLDSDGSFFLYSKLTVDKSRWQQGNVFSCSVMHEALHNHYTQKSLSLSP heavy 2: QDQLVQSGAEVKKPGASVKVSCKASGFNIKDTYIQWVRQAPGQGLEWMGRIDPLRKQTKYREKFEGRVTITADTSTNTAYMELSSLRSEDTAVYYCVRSGREFDYWGQGTLVTVSSASTKGPSVFPLAPSSKSTSGGTAALGCLVKDYFPEPVTVSWNSGALTSGVHTFPAVLQSSGLYSLSSVVTVPSSSLGTQTYICNVNHKPSNTKVDKKVEPKSCDKTHTCPPCPAPELLTGPSVFLFPPKPKDTLMISRTPEVTCVVVDVSHEEPEVKFNWYVDGVEVHNAKTKPREEQYNSTYRVVSVLTVLHQDWLNGKEYKCKVSNDALPKPEEETISKAKGQPREPQVYTLPPSRCELTKNQVSLSCAVKGFYPSDIAVEWESNGQPENNYKTTPPVLDSDGSFFLVSKLTVDKSRWQQGNVFSCSVMHEALHNHYTQKSLSLSP light: DIQMTQSPSSLSASVGDRVTITCRASQDIHKYIAWYQQKPGQAPRLLIQYTSTLQPGVPSRFSGSGSGTDYTFTISSLQPEDIATYYCLQYEQLRTFGGGTKVEIKRTVAAPSVFIFPPSDEQLKSGTASVVCLLNNFYPREAKVQWKVDNALQSGNSQESVTEQDSKDSTYSLSSTLTLSKADYEKHKVYACEVTHQGLSSPVTKSFNRGEC | 8 | 2 |  | 
